Target: T1, VACV G3-ectodomain, tag-free (G3-Ecto) (vaccinia virus (VACV), UniProt P68458 22-111)
T1 sequence: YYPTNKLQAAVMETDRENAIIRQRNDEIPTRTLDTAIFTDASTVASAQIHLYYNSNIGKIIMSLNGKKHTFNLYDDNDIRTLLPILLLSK
Assay: crystal structure
Settings: both partners purified

B1: VACV L5-ectodomain, tag-free (L5-Ecto) (domain or fragment)
chain: NMFFMPKRKIPDPIDRLRRANLACEDDKLMIYGLPWMTTQTSALSINSKPIVYKDCAKLLRSINGSQPVSLNDVLRR
  binding result: binds
